The values below come from PMC8803948, “TdfH selectively binds metal-loaded tetrameric calprotectin for zinc import” (Communications Biology, 2022).

In general, stoichiometry N refers to the number of molecules, sites or subunits per partner or assembly.

This data set deals with the molecule itself. Nature of the data set: cryo-EM structure; TdfH-CP complex formed on a StrepTactinXT column (CP preincubated with CaCl2 and ZnCl2), eluted with desthiobiotin, in PBS pH 7.4, 0.02% LMNG; Titan Krios 300 kV; 6.1 Å; CP seen as a dimer of S100A8-S100A9 heterodimers (heterotetramer).

B1: human calprotectin (CP), heterodimer of S100A8 and S100A9 (complex)
chain 1: MLTELEKALNSIIDVYHKYSLIKGNFHAVYRDDLKKLLETECPQYIRKKGADVWFKELDINTDGAVNFQEFLILVIKMGVAAHKKSHEESHKE
chain 2: KMSQLERNIETIINTFHQYSVKLGHPDTLNQGEFKELVRKDLQNFLKKENKNEKVIEHIMEDLDTNADKQLSFEEFIMLMARLTWASHEKMHEGDEGPGHHHKPGLGEGTP
notes: S100A8, human, subunit of calprotectin; S100A9, human, subunit of calprotectin; with calcium and zinc it stands as a heterotetramer (two heterodimers) in the cryo-EM complex; also called S100A8-S100A9 heterodimer; copies: 1 + 1
In the case of B1, the “stoichiometry N” value worked out at 2.
